The record followed here is patent US12735488 (dated 2026).

By Kd is commonly meant a measure of binding affinity in units of concentration. Read a high Kd as a looser complex.

Assay [1] addresses hVISTA-ECD (human). Kind of assay: SPR pH 6.0.
In assay [2] the target is hVISTA-ECD (human). The assay can be described thus: SPR pH 6.9.
Assay [3] concerns the target hVISTA-ECD (human). The assay can be described thus: SPR pH 6.45.
The target in assay [4] is hVISTA-ECD (human). Kind of assay: SPR pH 7.4, 37C.
The target in assay [5] is hVISTA-ECD (human). Kind of assay: SPR pH 6.9, 37C.
The target in assay [6] is hVISTA-ECD (human). The assay can be described thus: SPR pH 7.4, 37C. This is another data set of the same source.
Assay [7] addresses hVISTA-ECD (human). Kind of assay: SPR pH 6.0, 37C.
The target of assay [8] is hVISTA-ECD (human). The assay can be described thus: SPR pH 6.0, 37C. The source holds these as a separate data set.
Assay [9] has as its target hVISTA-ECD (human). The assay can be described thus: SPR pH 6.0, 37C. This is another data set of the same source.
In assay [10] the target is hVISTA-ECD (human). Kind of assay: SPR pH 6.45, 37C.
The target in assay [11] is hVISTA-ECD (human). Kind of assay: SPR pH 7.4, low or no binding.

hVISTA-ECD (human), sequence (chain, as listed by the source): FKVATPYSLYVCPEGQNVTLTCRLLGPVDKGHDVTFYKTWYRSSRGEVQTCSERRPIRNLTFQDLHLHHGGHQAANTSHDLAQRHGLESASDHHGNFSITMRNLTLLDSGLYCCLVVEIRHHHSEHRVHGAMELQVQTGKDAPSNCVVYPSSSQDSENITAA

B1: P1-068767 (antibody, V domains shown)
VH: EVQLVESGGGLVQPGKSLRLSCAASGFTLEDYAMHWVRQAPGKGLEWVSGIDWNSENIGYADSVKGRFTISRDNAKNSLYLQMNSLRTEDTALYYCAKVPGYSGGWIDAEDDWGQGTMVTVSS
VL: not shown
B1: the Kd came to 6.78 nM in assay [1]; 385 nM in [2]; 31.8 nM in assay [3]; 19000 nM in assay [4]; 400 nM in assay [5]; 19000 nM in [6]. For the same molecule, the Kd amounted to 7.8 nM in assay [7], 7.6 nM in assay [8], 3.4 nM in assay [9] and 38 nM in assay [10]. Also, the binding result in [11] was “no binding”.
